Measurements as given in doi:10.1101/2020.08.03.234229 (bioRxiv, 2020).

Molecular target: T1, TSEN15 tryptic fragment (residues 23 to 170) (human, UniProt Q8WW01 23-170)
T1 sequence (looked up): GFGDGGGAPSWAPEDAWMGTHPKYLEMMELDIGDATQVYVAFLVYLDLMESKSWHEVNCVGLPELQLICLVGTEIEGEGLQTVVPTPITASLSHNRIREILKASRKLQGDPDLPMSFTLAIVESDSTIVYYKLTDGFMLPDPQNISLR
Test: SEC

binding result: binds
B1: TSEN34 tryptic fragment (residues 208 to 310) (domain or fragment, human, UniProt Q9BSV6 208-310, looked up)
chain: DWPHAGRPAHELRYSIYRDLWERGFFLSAAGKFGGDFLVYPGDPLRFHAHYIAQCWAPEDTIPLQDLVAAGRLGTSVRKTLLLCSPQPDGKVVYTSLQWASLQ
